This note sets out measurements from publication PMC2289705.

This test addresses vimentin 2.tag (epitope-tagged Xenopus laevis vimentin 2, 57 kD) (X. laevis). The experiment in a line: fractionation of oocytes into soluble and insoluble fractions.

On to “vimentin 2.tag (epitope-tagged Xenopus laevis vimentin 2, 57 kD) (natural protein)”, for which the stoichiometry N (commonly a count of units in the complex or per binding partner) turned out to be 4.
